Source: paper PMC8102066 (eLife, 2021)
Several values for one entry are separate records, joined by “and”; a condition that tells them apart may be missing. Identical values can stand only once.

Tests used:
mGluR3 = mGluR3 (Rattus norvegicus, UniProt P31422); experiment: Inter-LBD FRET (N-terminal SNAP-tags), live cells; details: SNAP-mGluR3
[1] = tested on: SNAP-tagged mGluR2 and mGluR3 constructs; experiment: Surface expression measurements; type: cell-based, rat; details: construct; single measurements
Excerpt: ImageJ was used to analyze fluorescence intensity of cell clusters. […] Fluorescence intensity values for each construct were normalized to wild-type values for comparison.

mGluR2 = mGluR2 (Rattus norvegicus, UniProt P31421); experiment: Inter-LBD FRET (N-terminal SNAP-tags), live cells; details: SNAP-mGluR2
mGluR2-3xTM4 = mGluR2-3xTM4 (Rattus norvegicus, UniProt P31421, A677S/A681F/A685G); experiment: Inter-LBD FRET (N-terminal SNAP-tags), live cells; details: SNAP-mGluR2-3xTM4

B1: SNAP-mGluR3 (protein)
chain: LGDHNFMRREIKIEGDLVLGGLFPINEKGTGTEECGRINEDRGIQRLEAMLFAIDEINKDNYLLPGVKLGVHILDTCSRDTYALEQSLEFVRASLTKVDEAEYMCPDGSYAIQENIPLLIAGVIGGSYSSVSIQVANLLRLFQIPQISYASTSAKLSDKSRYDYFARTVPPDFYQAKAMAEILRFFNWTYVSTVASEGDYGETGIEAFEQEARLRNICIATAEKVGRSNIRKSYDSVIRELLQKPNARVVVLFMRSDDSRELIAAANRVNASFTWVASDGWGAQESIVKGSEHVAYGAITLELASHPVRQFDRYFQSLNPYNNHRNPWFRDFWEQKFQCSLQNKRNHRQVCDKHLAIDSSNYEQESKIMFVVNAVYAMAHALHKMQRTLCPNTTKLCDAMKILDGKKLYKEYLLKINFTAPFNPNKGADSIVKFDTFGDGMGRYNVFNLQQTGGKYSYLKVGHWAETLSLDVDSIHWSRNSVPTSQCSDPCAPNEMKNMQPGDVCCWICIPCEPYEYLVDEFTCMDCGPGQWPTADLSGCYNLPEDYIKWEDAWAIGPVTIACLGFLCTCIVITVFIKHNNTPLVKASGRELCYILLFGVSLSYCMTFFFIAKPSPVICALRRLGLGTSFAICYSALLTKTNCIARIFDGVKNGAQRPKFISPSSQVFICLGLILVQIVMVSVWLILETPGTRRYTLPEKRETVILKCNVKDSSMLISLTYDVVLVILCTVYAFKTRKCPENFNEAKFIGFTMYTTCIIWLAFLPIFYVTSSDYRVQTTTMCISVSLSGFVVLGCLFAPKVHIVLFQPQKNVVTHRLHLNRFSVSGTATTYSQSSASTYVPTVCNGREVLDSTTSSL
modifications: SNAP tag labelled with BG-LD555 (BG-LD655 in two-colour SiMPull); left off: HA, N-terminal, kept | SNAP, N-terminal, kept
Basal LBD FRET (%) (mGluR3): 20% and 30% and 23% and 24%

B2: SNAP-mGluR3-C127A-I788A (protein)
chain: LGDHNFMRREIKIEGDLVLGGLFPINEKGTGTEECGRINEDRGIQRLEAMLFAIDEINKDNYLLPGVKLGVHILDTCSRDTYALEQSLEFVRASLTKVDEAEYMAPDGSYAIQENIPLLIAGVIGGSYSSVSIQVANLLRLFQIPQISYASTSAKLSDKSRYDYFARTVPPDFYQAKAMAEILRFFNWTYVSTVASEGDYGETGIEAFEQEARLRNICIATAEKVGRSNIRKSYDSVIRELLQKPNARVVVLFMRSDDSRELIAAANRVNASFTWVASDGWGAQESIVKGSEHVAYGAITLELASHPVRQFDRYFQSLNPYNNHRNPWFRDFWEQKFQCSLQNKRNHRQVCDKHLAIDSSNYEQESKIMFVVNAVYAMAHALHKMQRTLCPNTTKLCDAMKILDGKKLYKEYLLKINFTAPFNPNKGADSIVKFDTFGDGMGRYNVFNLQQTGGKYSYLKVGHWAETLSLDVDSIHWSRNSVPTSQCSDPCAPNEMKNMQPGDVCCWICIPCEPYEYLVDEFTCMDCGPGQWPTADLSGCYNLPEDYIKWEDAWAIGPVTIACLGFLCTCIVITVFIKHNNTPLVKASGRELCYILLFGVSLSYCMTFFFIAKPSPVICALRRLGLGTSFAICYSALLTKTNCIARIFDGVKNGAQRPKFISPSSQVFICLGLILVQIVMVSVWLILETPGTRRYTLPEKRETVILKCNVKDSSMLISLTYDVVLVILCTVYAFKTRKCPENFNEAKFIGFTMYTTCIIWLAFLPAFYVTSSDYRVQTTTMCISVSLSGFVVLGCLFAPKVHIVLFQPQKNVVTHRLHLNRFSVSGTATTYSQSSASTYVPTVCNGREVLDSTTSSL
modifications: SNAP tag labelled with BG-LD555; left off: HA, N-terminal, kept | SNAP, N-terminal, kept
Surface Expression [1]: 1.29 and 0.91 and 1.30 and 0.67 and 0.74 and 0.86 and 1.22 and 0.70

B3: SNAP-mGluR2 (protein)
chain: EGPAKKVLTLEGDLVLGGLFPVHQKGGPAEECGPVNEHRGIQRLEAMLFALDRINRDPHLLPGVRLGAHILDSCSKDTHALEQALDFVRASLSRGADGSRHICPDGSYATHSDAPTAVTGVIGGSYSDVSIQVANLLRLFQIPQISYASTSAKLSDKSRYDYFARTVPPDFFQAKAMAEILRFFNWTYVSTVASEGDYGETGIEAFELEARARNICVATSEKVGRAMSRAAFEGVVRALLQKPSARVAVLFTRSEDARELLAATQRLNASFTWVASDGWGALESVVAGSERAAEGAITIELASYPISDFASYFQSLDPWNNSRNPWFREFWEERFHCSFRQRDCAAHSLRAVPFEQESKIMFVVNAVYAMAHALHNMHRALCPNTTHLCDAMRPVNGRRLYKDFVLNVKFDAPFRPADTDDEVRFDRFGDGIGRYNIFTYLRAGSGRYRYQKVGYWAEGLTLDTSFIPWASPSAGPLPASRCSEPCLQNEVKSVQPGEVCCWLCIPCQPYEYRLDEFTCADCGLGYWPNASLTGCFELPQEYIRWGDAWAVGPVTIACLGALATLFVLGVFVRHNATPVVKASGRELCYILLGGVFLCYCMTFVFIAKPSTAVCTLRRLGLGTAFSVCYSALLTKTNRIARIFGGAREGAQRPRFISPASQVAICLALISGQLLIVAAWLVVEAPGTGKETAPERREVVTLRCNHRDASMLGSLAYNVLLIALCTLYAFKTRKCPENFNEAKFIGFTMYTTCIIWLAFLPIFYVTSSDYRVQTTTMCVSVSLSGSVVLGCLFAPKLHIILFQPQKNVVSHRAPTSRFGSAAPRASANLGQGSGSQFVPTVCNGREVVDSTTSSL
modifications: SNAP tag labelled with BG-LD555 (BG-LD655 in two-colour SiMPull); left off: HA, N-terminal, kept | SNAP, N-terminal, kept
Basal LBD FRET (%) (mGluR2): 0%

B4: SNAP-mGluR2-3xTM4 (protein)
chain: EGPAKKVLTLEGDLVLGGLFPVHQKGGPAEECGPVNEHRGIQRLEAMLFALDRINRDPHLLPGVRLGAHILDSCSKDTHALEQALDFVRASLSRGADGSRHICPDGSYATHSDAPTAVTGVIGGSYSDVSIQVANLLRLFQIPQISYASTSAKLSDKSRYDYFARTVPPDFFQAKAMAEILRFFNWTYVSTVASEGDYGETGIEAFELEARARNICVATSEKVGRAMSRAAFEGVVRALLQKPSARVAVLFTRSEDARELLAATQRLNASFTWVASDGWGALESVVAGSERAAEGAITIELASYPISDFASYFQSLDPWNNSRNPWFREFWEERFHCSFRQRDCAAHSLRAVPFEQESKIMFVVNAVYAMAHALHNMHRALCPNTTHLCDAMRPVNGRRLYKDFVLNVKFDAPFRPADTDDEVRFDRFGDGIGRYNIFTYLRAGSGRYRYQKVGYWAEGLTLDTSFIPWASPSAGPLPASRCSEPCLQNEVKSVQPGEVCCWLCIPCQPYEYRLDEFTCADCGLGYWPNASLTGCFELPQEYIRWGDAWAVGPVTIACLGALATLFVLGVFVRHNATPVVKASGRELCYILLGGVFLCYCMTFVFIAKPSTAVCTLRRLGLGTAFSVCYSALLTKTNRIARIFGGAREGAQRPRFISPSSQVFICLGLISGQLLIVAAWLVVEAPGTGKETAPERREVVTLRCNHRDASMLGSLAYNVLLIALCTLYAFKTRKCPENFNEAKFIGFTMYTTCIIWLAFLPIFYVTSSDYRVQTTTMCVSVSLSGSVVLGCLFAPKLHIILFQPQKNVVSHRAPTSRFGSAAPRASANLGQGSGSQFVPTVCNGREVVDSTTSSL
modifications: SNAP tag labelled with BG-LD555; left off: HA, N-terminal, kept | SNAP, N-terminal, kept
Basal LBD FRET (%) (mGluR2-3xTM4): 0%

B5: SNAP-mGluR3-I788A (protein, UniProt Q14832 23-879, looked up, variant I788A)
Metabotropic glutamate …: LGDHNFLRREIKIEGDLVLGGLFPINEKGTGTEECGRINEDRGIQRLEAMLFAIDEINKDDYLLPGVKLGVHILDTCSRDTYALEQSLEFVRASLTKVDEAEYMCPDGSYAIQENIPLLIAGVIGGSYSSVSIQVANLLRLFQIPQISYASTSAKLSDKSRYDYFARTVPPDFYQAKAMAEILRFFNWTYVSTVASEGDYGETGIEAFEQEARLRNICIATAEKVGRSNIRKSYDSVIRELLQKPNARVVVLFMRSDDSRELIAAASRANASFTWVASDGWGAQESIIKGSEHVAYGAITLELASQPVRQFDRYFQSLNPYNNHRNPWFRDFWEQKFQCSLQNKRNHRRVCDKHLAIDSSNYEQESKIMFVVNAVYAMAHALHKMQRTLCPNTTKLCDAMKILDGKKLYKDYLLKINFTAPFNPNKDADSIVKFDTFGDGMGRYNVFNFQNVGGKYSYLKVGHWAETLSLDVNSIHWSRNSVPTSQCSDPCAPNEMKNMQPGDVCCWICIPCEPYEYLADEFTCMDCGSGQWPTADLTGCYDLPEDYIRWEDAWAIGPVTIACLGFMCTCMVVTVFIKHNNTPLVKASGRELCYILLFGVGLSYCMTFFFIAKPSPVICALRRLGLGSSFAICYSALLTKTNCIARIFDGVKNGAQRPKFISPSSQVFICLGLILVQIVMVSVWLILEAPGTRRYTLAEKRETVILKCNVKDSSMLISLTYDVILVILCTVYAFKTRKCPENFNEAKFIGFTMYTTCIIWLAFLPAFYVTSSDYRVQTTTMCISVSLSGFVVLGCLFAPKVHIILFQPQKNVVTHRLHLNRFSVSGTGTTYSQSSASTYVPTVCNGREVLDSTTSSL
modifications: N-terminal SNAP tag
Surface Expression [1]: 1.08 and 0.88 and 0.76 and 0.68 and 0.70 and 0.97 and 0.75
